Holding throughout (assay): ELISA
Assay [1] deals with hemagglutinin of A/pigeon/Shanghai/S1069/2013 (H7N9) (influenza A virus …).
Assay [2] concerns the target hemagglutinin of A/duck/Guangxi/SDY129/2014 (H7N9) (influenza A virus …).
Assay [3] has as its target hemagglutinin of A/chicken/Yunnan/SD193/2017 (H7N9) (influenza A virus …).
The target of assay [4] is hemagglutinin of A/chicken/Guangdong/SD008/2017 (H7N9) (influenza A virus …).

Consider 2 molecules from publication PMC11784312 (2024).

B1: 1H9 neutralizing antibody (antibody, V domains shown)
VH: VQLQESGPGLVKPSQSLSLTCTVTGYSITSDYTWNWIRQFPGNKLEWMGYITYSDTTSYNPSLKSRISITRDTSKNQFFLQLNSVTTEDTATYYCARSDGWYGFAYWGQGTLVTVSA
VL: DIQMNQSPSSLSASLGDTITITCHASQNINVWLSWYQQKPGNIPKLLIYKAFDLHTGVPSRFSGSGSGTGFTLTISSLQPEDIATYYCQQGQTYPFTFGGGTKLEIK
As to B1, the concentration giving a half-maximal response (EC50) is 0.0837 µg/mL in assay [1], 0.0808 µg/mL in assay [2], 0.195 µg/mL in assay [3] and 0.0861 µg/mL in assay [4].

B2: 2D7 neutralizing antibody (antibody, V domains shown)
VH: VQLQESGPGLVKPSQSLSLTCTVTGYSITSDYTWNWIRQFPGNKLEWMGYISYSGSTSYNPSLKSRMSITRDTSKNQFLLQLNSVTTADTATYYCTRDGPYWHIDVWGAGTTVTVSS
VL: DIQMNQSPSSLSASLGDTITITCHASQTINIWLSWYQLKPGNIPKLLIYKASNLHTGVPSRFSGSGSGTGFTLTISSLQPEDIASYYCQQGQSFPYTFGGGTKLEIK
For B2, the EC50 is 0.0857 µg/mL in assay [1], 0.0535 µg/mL in assay [2], 0.0539 µg/mL in assay [3] and 0.0561 µg/mL in assay [4].
